# B1: library; numbered along this chain (parent)
# chain: MAAAGGARLLRAASAVLGGPAGRWLHHAGSRAGSSGLLRNRGPGGSAEASRSLSVSARARSSSEDKITVHFINRDGETLTTKGKVGDSLLDVVVENNLDIDGFGACEGTLACSTCHLIFEDHIYEKLDAITDEENDMLDLAYGLTDRSRLGCQICLTKSMDNMTVRVPETVADARQSIDVGKTS
# Variants of: B1
# Assay: scaled log2 fold change in cell abundance, elesclomol vs control (0 = silent mean, 1 = nonsense mean) (scaled log2 ratio); higher = higher viability under elesclomol (loss of FDX1 cuproptosis function)
# Conditions: glucose 10 mM
# [1] = with ABC1 FDX1 KO, elesclomol 5 nM, 14 days
# [2] = with HEK293T FDX1 KO, elesclomol 40 nM, 11 days
# 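Further: variant abundance is its share of total variant reads in each endpoint sample, from next-generation sequencing of the integrated ORF PCR-amplified out of genomic DNA.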
Variant,scaled log2 fold change [1],scaled log2 fold change [2]
R149T,1.01,0.998
G151F,1.04,1.32
G151C,0.338,-0.416
G151Q,1.11,1.05
G151V,0.707,-0.147
G151H,1.27,1.31
G151T,0.645,0.96
G151M,1.01,1.15
G151P,1.03,1.12
G151S,0.0704,-0.359
G151K,1.04,0.728
G151L,1,0.743
G151I,1.07,0.797
G151E,1.06,1.01
G151R,1.11,0.946
G151W,1.06,1.38
G151Y,1.15,1.08
G151A,0.241,0.25
G151N,1.12,1.08
G151D,1.22,1.19

Variant,scaled log2 fold change [1],scaled log2 fold change [2]
R147A,0.283,
R147N,0.171,0.904
R147M,0.167,-0.232
R147K,-0.354,-0.267
R147F,0.104,-0.384
R147T,-0.344,-0.0355
R147C,-0.148,0.356
R147L,-1.37,-0.851
R147W,0.275,-0.126
R147D,0.339,0.314
R147V,0.177,0.544
R147Q,0.0113,-0.0201
R147P,0.35,-0.0221
R147E,0.159,-0.255
R147G,-0.409,0.00185
R147S,-0.721,-0.596
R147Y,0.159,0.243
R147I,0.215,-0.172
R147H,-0.0226,-0.215
T145G,0.132,1.06

Variant,scaled log2 fold change [1],scaled log2 fold change [2]
T145Y,0.224,0.0425
T145D,-0.00306,-0.25
T145H,-0.157,-0.272
T145L,0.169,0.152
T145F,-0.258,-0.0341
T145S,0.00135,
T145N,0.291,-0.855
T145K,-0.0518,-0.472
T145Q,0.226,-1.28
T145V,0.027,-0.443
T145E,-0.0343,-0.344
T145C,-0.124,-0.351
T145M,0.318,-0.375
T145R,0.0604,-0.726
T145A,-0.6,0.187
T145W,0.478,-0.147
T145P,0.209,-0.123
T145I,0.244,-0.228
